Experimental data reported in patent US7589065.

How the values were obtained:
Ala-Ala-Tyr-Ala-Ala = tested on: T1, Ala-Ala-Tyr-Ala-Ala
T1 sequence: AAYAA

DnaK (Escherichia coli) = DnaK (Escherichia coli) (UniProt P0A6Y8); assay: cell-based or functional assay
DnaK (Escherichia coli), sequence (P0A6Y8 2-638 limits assumed): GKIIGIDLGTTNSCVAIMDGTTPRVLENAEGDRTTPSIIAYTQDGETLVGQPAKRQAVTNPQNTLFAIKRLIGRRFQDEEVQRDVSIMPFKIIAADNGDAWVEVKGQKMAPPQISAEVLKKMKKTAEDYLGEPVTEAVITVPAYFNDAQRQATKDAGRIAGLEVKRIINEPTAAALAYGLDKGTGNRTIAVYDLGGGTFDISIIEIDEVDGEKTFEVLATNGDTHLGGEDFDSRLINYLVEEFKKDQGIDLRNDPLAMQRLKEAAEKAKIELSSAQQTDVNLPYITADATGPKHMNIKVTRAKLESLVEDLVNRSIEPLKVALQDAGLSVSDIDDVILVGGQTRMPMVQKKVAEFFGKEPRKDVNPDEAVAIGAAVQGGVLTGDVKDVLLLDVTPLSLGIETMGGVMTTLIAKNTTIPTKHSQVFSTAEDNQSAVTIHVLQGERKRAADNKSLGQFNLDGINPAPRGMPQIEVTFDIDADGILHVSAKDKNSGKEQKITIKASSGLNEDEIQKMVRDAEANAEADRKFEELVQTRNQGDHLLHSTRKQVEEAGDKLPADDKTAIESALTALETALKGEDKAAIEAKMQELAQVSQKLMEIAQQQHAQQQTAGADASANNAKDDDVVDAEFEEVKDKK

Row | Substance | relative intensity of the cross signal of the Ala-Tyr peptide bond (no addition: 3.50 ± 0.51) (relative intensity) (Ala-Ala-Tyr-Ala-Ala) | relative intensity of the cross signal of the Tyr-Ala peptide bond (no addition: 3.89 ± 0.32) (relative intensity) (Ala-Ala-Tyr-Ala-Ala) | IC50 of the inhibition of the APIase activity of DnaK (spectrophotometric Ala-Leu assay) (DnaK (Escherichia coli)) [µM]
1 | FKBP12 | 3.94 | 2.68 | 
2 | substance P (peptide) |  |  | 76
